The text below walks through data of patent publication US20230079150A1, “METHODS FOR PREVENTION OR TREATMENT OF VIRUS-INDUCED ORGAN INJURY OR FAILURE WITH IL-22 DIMER” (priority 2020, published 2023).

Where two headings read alike, the source gives them in different places.

Experiment [1] has as its system H1N1 influenza (A/PR8 strain). It is filed as in vivo, C57BL/6 mice. The settings on record: aged mice; data not shown.
For the next experiment, the system named is SARS-CoV-2. It is filed as cell-based, human. As to conditions: for sgm-N RNA copies compared to no F-652 treatment: MOI 0.1, 48 hours post challenge.
The test system of experiment [2] is C57BL/6 mice. As to the kind of experiment: LPS acute lung injury mouse model: histopathology score. It is filed as in vivo. Here is the method: (§1) After approval from the Tulane University, Institutional Animal Care and Use Committee (protocol ID 607), equal numbers of male and female, 6-8 week old C57BL/6 mice (Charles River Laboratories, Cambridge, Mass.) were given acute lung injury (ALI) via intra-tracheally administered LPS. After obtaining appropriate depth of anesthesia using isoflurane, the high-dose LPS group (HDG) received 100 μg of LPS administered intra-tracheally. Approximately 30 minutes after LPS administration, 4 μg of F-652 was administered via tail vein injection (n=11), then compared to animals receiving sham injection (n=8) with phosphate-buffered saline (PBS). In the low-dose LPS group (LDG), 33.3 μg of LPS was administered intra-tracheally. F-652 was again administered at 30 minutes (n=9) and compared to sham injected animals (n=9). […]
Immediately after sacrifice, lung tissue from the right lower lobe was fixed in 4% paraformaldehyde and cut into sections. […] Lung injury induced by LPS was assessed by a blinded reviewer with a numerical scoring scale ranging from 0-4. Regions of lung injury in sections were scored for the extent of intimal thickening, alveolitis, and the presence of proteinaceous material in the alveolar space. […]

The subject of experiment [3] is H1N1 influenza (A/PR8 strain). It counts as in vivo, C57BL/6 mice.
Experiment [4] deals with C57BL/6 mice. As to the kind of experiment: LPS acute lung injury mouse model: lung RNA-seq pathway analysis. It is filed as in vivo. As to conditions: high-dose LPS injury; lung tissue. On the procedure: as §1, with “(PBS).” for “(PBS). In the low-dose LPS group (LDG), 33.3 μg of LPS was administered intra-tracheally. F-652 was again administered at 30 minutes (n=9) and compared to sham injected animals (n=9).”
Lung tissue was homogenized in Trizol buffer (Life Technologies) and total RNA extraction was performed according to Trizol manufacturer's instructions. […] RNA quantity and quality were assessed using NanoDrop and Agilent RNA ScreenTape with Agilent 4150 TapeStation system. SMART-Seq Stranded total RNA sample prep kit (Takara Bio USA, Inc.) was used for library preparation as specified in the user manual, followed by Agilent DNA 1000 kit validation with Agilent 4150 TapeStation system and quantification by Qubit 2.0 fluorometer. […] Cluster generation and 1×75 bp single read single-indexed sequencing was performed by High-Output kit v2.5 (75 cycles) on Illumina NextSeq 550. Raw reads were processed and mapped. […]

Experiment [5] relates to Human umbilical vein endothelial cells (HUVEC). As to the kind of experiment: Glycocalyx quantification (WGA staining) in HUVECs with or without LPS. It counts as cell-based. On the procedure:
Human umbilical vein endothelial cells (HUVEC) were purchased from the American Type Culture Collection. Cells were initially grown in 2% gelatin-coated 10-cm plastic dishes using M200 medium supplemented with low serum growth supplement (LSGS) and penicillin/streptomycin in a cell culture incubator at 37° C. with 5% CO2 atmosphere. Cells were passaged by digestion in 0.25% trypsin in Hanks' Balanced Salt Solution (HBSS) after reaching 80% confluence. Cells were used for experiments between passages 1-3. For glycocalyx quantification, HUVECs were plated in 48-well plastic cell culture plates coated with 2% gelatin, at a confluence of approximately 80%. M200+LSGS+penicillin/streptomycin was supplemented with 1% bovine serum albumin (BSA) to support glycocalyx growth. Cells were cultured for 24 hours to allow glycocalyx development before LPS exposure.
After completion of the LPS exposure with or without F-652, HUVECs were fixed by addition of concentrated formaldehyde solution directly to the culture medium to yield a final formaldehyde concentration of 3.5%. […] Glycocalyx and nuclei (4′,6-diamidino-2-phenylindole) were imaged on an EVOS fluorescence microscope under identical conditions. […] ImageJ software was used to quantify glycocalyx fluorescence intensity overlaying the nuclei of each visible cell.

B1: F-652: recombinant IL-22 dimer consisting of two monomeric subunits each comprising a sequence shown in SEQ ID NO: 24 (protein)
chain 1: APISSHCRLDKSNFQQPYITNRTFMLAKEASLADNNTDVRLIGEKLFHGVSMSERCYLMKQVLNFTLEEVLFPQSDRFQPYMQEVVPFLARLSNRLSTCHIEGDDLHIQRNVQKLKDTVKKLGESGEIKAIGELDLLFMSLRNACIGSGGGSGGGGSGGGGSVECPPCPAPPVAGPSVFLFPPKPKDTLMISRTPEVTCVVVDVSHEDPEVQFNWYVDGVEVHNAKTKPREEQFNSTFRVVSVLTVVHQDWLNGKEYKCKVSNKGLPASIEKTISKTKGQPREPQVYTLPPSREEMTKNQVSLTCLVKGFYPSDIAVEWESNGQPENNYKTTPPMLDSDGSFFLYSKLTVDKSRWQQGNVFSCSVMHEALHNHYTQKSLSLSPGK
chain 2: APISSHCRLDKSNFQQPYITNRTFMLAKEASLADNNTDVRLIGEKLFHGVSMSERCYLMKQVLNFTLEEVLFPQSDRFQPYMQEVVPFLARLSNRLSTCHIEGDDLHIQRNVQKLKDTVKKLGESGEIKAIGELDLLFMSLRNACIGSGGGSGGGGSGGGGSVECPPCPAPPVAGPSVFLFPPKPKDTLMISRTPEVTCVVVDVSHEDPEVQFNWYVDGVEVHNAKTKPREEQFNSTFRVVSVLTVVHQDWLNGKEYKCKVSNKGLPASIEKTISKTKGQPREPQVYTLPPSREEMTKNQVSLTCLVKGFYPSDIAVEWESNGQPENNYKTTPPMLDSDGSFFLYSKLTVDKSRWQQGNVFSCSVMHEALHNHYTQKSLSLSPGK
modifications: homodimer
B1: the “CD8+ cells and KRT5+ cells in lungs compared to PBS control” value in experiment [1] is “clear trend of decrease”. In addition, the “sgm-N RNA copies compared to no F-652 treatment” value with SARS-CoV-2 (post-treatment, 100 ng/mL F-652 basolaterally on the day post-viral infection) was “significantly lower”; in the experiment with SARS-CoV-2 (pre-treatment, 100 ng/mL F-652 for 18 hours before infection) it was “significantly lower”. In addition, the “mapping of RNA-seq reads to the SARS-CoV-2 genome compared to no F-652 treatment” value in the experiment with SARS-CoV-2 (pre-treatment and post-treatment with 100 ng/mL F-652) was “reduced mapping”. The “histopathology injury score (scale 0-4)” value with C57BL/6 mice [2] (high-dose LPS injury, sham 2.0) is 1.0. The “histopathology scores, F-652 treated vs sham” value with C57BL/6 mice [2] (low dose LPS injury) is “did not show any difference”. Besides, in experiment [3] (aged mice, 3-week treatment), the “influenza specific CD8+ T cells (Total CD8+) compared to PBS control” value is reported as “significantly decreased”. Besides, the “lung infiltrating neutrophils and inflammatory monocytes compared to 3-week F-652 treatment” value in experiment [3] (aged mice, 6-week F-652 treatment) is recorded as “even more decrease”. In addition, the “lung infiltrating neutrophils and inflammatory monocytes compared to PBS control” value in experiment [3] (aged mice, F-652 200 μg/kg weekly for 3 weeks, Days 62-65 post-infection) is listed as “decreased significantly”. In experiment [3] (both young and aged hosts), the “CD8+ T cells expressing CD69+ or CD69+/CD103+ compared to PBS control” value is on record as “decreased significantly”. Also, the “total number of CD8+ T cells” value in experiment [3] (young mice, 3-week treatment) is recorded as “no significant difference”. Besides, in experiment [3] (young mice, treated for 3 weeks or 6 weeks), the “lung infiltrating neutrophils or inflammatory monocytes, PBS vs F-652” value is “no significant difference”. Further, the “Macrophage Inflammatory Protein-1β (CCL4) expression (RNA-seq)” value in the experiment on C57BL/6 mice [4] is given as “decrease”. For the same molecule, the “Tnc, COL1a1, Col6a3 and Col1a2 expression (RNA-seq)” value with C57BL/6 mice [4] is listed as “increased”. Also, the glycocalyx staining intensity in experiment [5] (0.375 μg/mL F-652 alone, 24 hours, control 6.09) was 5.08 AU; in experiment [5] (1 μg/mL LPS and 0.375 μg/mL F-652, 24 hours, control 6.09, LPS 5.10), 5.86 AU.
